Measured values as given in US20170333570A1 (FORMATION BIOLOGICS, published 2017).

Target: human epidermal growth factor receptor (hEGFR) (human, UniProt P00533 25-1210)
Assay: cell-based or functional assay

Binder	IC50 (nM), cell growth/survival (sulforhodamine B), A549	IC50 (nM), cell growth/survival (sulforhodamine B), NCI-H226	IC50 (nM), cell growth/survival (sulforhodamine B), NCI-H292
992-DM1 (antibody, V domains shown, DM1 conjugated through SMCC linker; conjugated residues and chain not stated) VH: EVQLQQPGSELVRPGASVKLSCKASGYTFTSYWMHWVKQRPGQGLEWIGNIYPGSRSTNYDEKFKSKATLTVDTSSSTAYMQLSSLTSEDSAVYYCTRNGDYYVSSGDAMDYWGQGTSVTVS VL: DIQMTQTTSSLSASLGDRVTISCRTSQDIGNYLNWYQQKPDGTVKLLIYYTSRLHSGVPSRFSGSGSGTDFSLTINNVEQEDVATYFCQHYNTVPPTFGGGTKLEIKR	2.2 nM	1.07 nM	0.22 nM
1024-DM1 (antibody, V domains shown, DM1 conjugated through SMCC linker; conjugated residues and chain not stated) VH: QVQLQQPGAELVEPGGSVKLSCKASGYTFTSHWMHWVKQRPGQGLEWIGEINPSSGRNNYNEKFKSKATLTVDKSSSTAYMQFSSLTSEDSAVYYCVRYYGYDEAMDYWGQGTSVTVS VL: DIVMTQAAFSNPVTLGTSASISCRSSKSLLHSNGITYLYWYLQKPGQSPQLLIYQMSNLASGVPDRFSSSGSGTDFTLRISRVEAEDVGVYYCAQNLELPYTFGGGTKLEIKR	24.7 nM	1.89 nM	0.09 nM
